Here are results for one molecule from patent publication US20260031189A1 (BIONTECH US, published 2026).

For this test, the target named is S353-369. Nature of the test: FP assay; pair as listed in Table 23.

B1: HLA-DRA*01:01/DRB4*01:03 soluble heterodimer (receptor)
MHC II alpha: not shown
MHC II beta: not shown
notes: also called HLA-DRB4*01:03/DRA*01:01
Consider B1, for which the binding result was “binds”.
